One experiment addresses T1, recombinant huCD30 (R&D) (Homo sapiens, UniProt P28908).
T1 construct: recombinant human CD30 from R&D; also called rhCD30; huCD30 protein; source: bought: R&D
Put plainly: SPR; BIAcore 3000, 25°C; recombinant huCD30 amine-coupled on a CM5 chip; mAbs as analyte in serial 1:2 dilutions from 20 nM; 10 mM Hepes pH 7.4, 150 mM NaCl, 0.005% P20, 0.1% BSA; 1:1 Langmuir fit. The conditions noted are these: both partners purified.

The target of a further experiment is T2, Recombinant huCD30 (Homo sapiens, UniProt P28908).
T2 construct: human CD30 (TNFRSF8), recombinant protein from R&D; also called rhCD30; huCD30 protein; source: bought: R&D
Put plainly: SPR; mAbs (5 ng/ul) immobilized on a Protein G sensor chip at about 200 RU; rhCD30 as analyte (0-2500 nM for the 8D10 and 10C2 flow cells), 2 min at 40 ul/min, 3 min dissociation; 25°C; 10 mM Hepes pH 7.4, 150 mM NaCl, 0.005% P20; BIAcore 3000; 1:1 Langmuir fit. The conditions noted are these: both partners purified. In general terms: SPR reads the build-up and loss of mass on a sensor chip optically.

Seven molecules from publication PMC10461807 (Frontiers in Immunology, 2023) can be followed below.

T1 sequence (P28908 19-385): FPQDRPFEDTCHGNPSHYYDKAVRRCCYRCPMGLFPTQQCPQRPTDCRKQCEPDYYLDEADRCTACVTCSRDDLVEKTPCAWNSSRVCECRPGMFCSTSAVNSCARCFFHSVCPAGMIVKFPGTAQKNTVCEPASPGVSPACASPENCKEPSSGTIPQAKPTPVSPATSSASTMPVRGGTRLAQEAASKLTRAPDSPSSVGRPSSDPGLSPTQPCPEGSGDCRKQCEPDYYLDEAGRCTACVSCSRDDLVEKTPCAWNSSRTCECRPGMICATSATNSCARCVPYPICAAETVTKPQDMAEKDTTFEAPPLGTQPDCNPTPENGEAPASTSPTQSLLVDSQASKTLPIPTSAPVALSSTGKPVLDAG
T2 sequence (P28908 19-385): as above

B1: anti-CD30 mAb 8D10 (antibody, V domains shown)
VH: QVQLQESGTELVKPGASVKLSCKASGYTFTSYWMHWMKQRPGQGLEWIGNINPSNGGTNYNEKFKNKATLTVDKSSSTAYMQLSSLTSEDSAVYYCARRDYYYGSSYGFDVWGTGTTVTVSS
VL: DIVMTQSPASQSASLGESVTITCLASQTIGTWLAWYQQKPGKSPQFLIYAATSLADGVPSRFSGSGSGTKFSFKISSLQAEDFVSYYCQQLYSTPFTFGGGTKLEIK
notes: also called clone 8D10; source: mouse hybridoma (custom generated by Genscript), serum-free supernatant, purified (rProtein A GraviTrap)
In general, Kd refers to a measure of binding affinity in units of concentration. Usually koff stands for a measure of how fast the partners let go of each other. What is called kon is a measure of how fast the partners come together. For B1, in the experiment with recombinant huCD30 (R&D), the Ka worked out at 1.69e+10 M⁻¹, the Kd came out at 0.0592 nM, the koff was found to be 6e-06 s⁻¹ and the kon was 101000 M⁻¹ s⁻¹.

B2: anti-CD30 mAb 8D10 (antibody, V domains shown)
VH: QVQLQESGTELVKPGASVKLSCKASGYTFTSYWMHWMKQRPGQGLEWIGNINPSNGGTNYNEKFKNKATLTVDKSSSTAYMQLSSLTSEDSAVYYCARRDYYYGSSYGFDVWGTGTTVTVSS
VL: DIVMTQSPASQSASLGESVTITCLASQTIGTWLAWYQQKPGKSPQFLIYAATSLADGVPSRFSGSGSGTKFSFKISSLQAEDFVSYYCQQLYSTPFTFGGGTKLEIK
notes: IgG2a constant part; kappa light chain; source: mouse hybridoma supernatant (serum-free medium), purified on rProtein A GraviTrap column
For the molecule B2, in the experiment with Recombinant huCD30, the Ka was determined as 878000 M⁻¹, the Kd is 1140 nM, the koff came out at 0.00523 s⁻¹ and the kon was determined as 4530 M⁻¹ s⁻¹.

B3: anti-CD30 mAb 12B1 (antibody, V domains shown)
VH: EVKLEESGTELVKPGASVKLSCKASGYTFTSYWMHWVKQRPGQGLEWIGNINPTNGGTNYNEKFKSKATLTVDKSSRTAYMQLSSLTSGDSAVYYCARRDFITTSGFAYWGQGTLVTVSA
VL: DIVMTQTTASLSTSVGETVTITCRASGNLHSYLTWYQQKQGKSPQLLVYNAKTLADGVPSRFSGSGSGTQYSLKIDSLQPEDFGSYYCQHFWTTPFTFGSGTKLEIK
notes: also called clone 12B1; source: mouse hybridoma (custom generated by Genscript), serum-free supernatant, purified (rProtein A GraviTrap)
Take B3: in the experiment with recombinant huCD30 (R&D), the Ka was determined as 5.02e+09 M⁻¹, the Kd turned out to be 0.199 nM, the koff was 1.22e-05 s⁻¹ and the kon was determined as 61300 M⁻¹ s⁻¹.

B4: anti-CD30 mAb 15B8 (antibody, V domains shown)
VH: QVQLEQSGTELVKPGASVKLSCKASGYTFTSYWMHWVKQRPGQGLEWIGNINPSNGGTNYNEKFKSKATLTVDKSSSTAYMQLSSLTSEDSAIYYCARRNNYYASSPFAYWGQGTLVSVSA
VL: DIVMTQTPASLSASVGETVTITCRASGNIHNYLAWYQQKQGKSPQLLVYNAKTLADGVPSRFSGSGSGTQYSLKINSLQPEDFGSYYCQHFWSTPFTFGSGTKLEIK
notes: also called clone 15B8; source: mouse hybridoma (custom generated by Genscript), serum-free supernatant, purified (rProtein A GraviTrap)
In the case of B4, in the experiment with recombinant huCD30 (R&D), the Ka was 1.02e+09 M⁻¹, the equilibrium dissociation constant (Kd) worked out at 0.978 nM, the koff came out at 0.000493 s⁻¹ and the kon was determined as 504000 M⁻¹ s⁻¹.

B5: anti-CD30 mAb 10C2 (antibody, V domains shown)
VH: QVQLEQSGPVLVKPGASVKMSCKASGYTFTDYYMNWVKQSHGKSLEWIGVINPYNGGTSYNQKFKGKATLTVDKSSSTACMELNCLTSEDSAVYYCTLGAYWGQGTSVTVSS
VL: not shown
notes: also called clone 10C2; source: mouse hybridoma (custom generated by Genscript), serum-free supernatant, purified (rProtein A GraviTrap)
As for B5, in the experiment with recombinant huCD30 (R&D), the Ka amounted to 1.65e+09 M⁻¹, the equilibrium dissociation constant (Kd) turned out to be 0.607 nM, the koff is 0.000186 s⁻¹ and the kon came to 307000 M⁻¹ s⁻¹.

B6: anti-CD30 mAb 10C2 (antibody, V domains shown)
VH: QVQLEQSGPVLVKPGASVKMSCKASGYTFTDYYMNWVKQSHGKSLEWIGVINPYNGGTSYNQKFKGKATLTVDKSSSTACMELNCLTSEDSAVYYCTLGAYWGQGTSVTVSS
VL: not shown
notes: as for B2
Take B6: in the experiment with Recombinant huCD30, the Ka came to 579000 M⁻¹, the Kd turned out to be 1760 nM, the dissociation rate constant (koff) came to 0.0101 s⁻¹ and the kon was 5880 M⁻¹ s⁻¹.

B7: anti-CD30 mAb 13H1 (antibody, V domains shown)
VH: QVQLQQSGTELVKPGASVKLSCKASGHTFTSYWMHWVKQRPGQGLEWIGNINPSNGGTNYNEKFKSKATLTVDKSSSTAYMQLSSLTSEDSAVYYCARRGYYGSSSYWSFDVWGTGTTVTVSS
VL: DIVMTQTPKSMSMSVGERVTLSCKASENVGTYVSWYQQKPEQSPKVLIYGASNRFTGVPDRFTGSGSATDFTLTISSVQTEDLADYHCGQSYSYPLTFGAGTKLELK
notes: also called clone 13H1; source: mouse hybridoma (custom generated by Genscript), serum-free supernatant, purified (rProtein A GraviTrap)
Regarding B7, in the experiment with recombinant huCD30 (R&D), the Ka turned out to be 6.7e+09 M⁻¹, the Kd is 0.149 nM, the koff stood at 0.000106 s⁻¹ and the kon came to 708000 M⁻¹ s⁻¹.
